Here are results for two molecules from patent US10392620B2, “Cytochrome B (CYTB) nucleic acid molecules that control pathogens” (Dow AgroSciences LLC, priority 2016, dated 2019).

For this series, the system named is Zymoseptoria tritici (SEPTTR-184). Briefly: Efficacy of target gene fragments (MgCytB dsRNA tiles) on wheat plants, SEPTTR-184. On the set-up: Average of 2 trials SEPTTR-184 3DC / Average of 2 trials SEPTTR-184 1DP: scale not given here. To be noted: for ED50 SEPTTR-184 1DP / ED80 SEPTTR-184 1DP / Disease Control All Rates Average SEPTTR-184 1DP / Sum of Disease Control SEPTTR-184 1DP / Average of 2 trials SEPTTR-184 1DP: 1DP (preventative); for Disease Control All Rates Average SEPTTR-184 1DP / Disease Control All Rates Average SEPTTR-184 3DC: average of 200, 50, 12.5, 3.125 ppm; for Sum of Disease Control SEPTTR-184 1DP / Sum of Disease Control SEPTTR-184 3DC: sum over 200, 50, 12.5, 3.125 ppm; for ED50 SEPTTR-184 3DC / ED80 SEPTTR-184 3DC / Disease Control All Rates Average SEPTTR-184 3DC / Sum of Disease Control SEPTTR-184 3DC / Average of 2 trials SEPTTR-184 3DC: 3DC (curative). Type of series: in vivo. The procedure:
The 200 ppm rate for each treatment was prepared by adding the calculated volume of the corresponding dsRNA solution in TE buffer. Lower rates were prepared as 4-fold dilutions (50 ppm, 12.5 ppm, and 3.12 ppm). A non-target dsRNA control (YFP), a TE/phosphate buffer control, disease pressure control, and clean plant control were included.
These plants were inoculated with an aqueous spore suspension of Zymoseptoria tritici either prior to or after fungicidal treatments. After inoculation the plants were kept in 100% relative humidity to allow spores to germinate and infect the leaves. The plants were then transferred to a greenhouse until disease developed.

B1: MgCytB-T4: 219 bp dsRNA of Zymoseptoria CytB region T4, location 1-219 (SEQ ID NO:7) (nucleic acid, listed as Zymoseptoria tritici)
chain: ATGAGGATTTGGAAGAGTCACCCTTTATTTAGTCTGGTTAATGGTTATCTTATCGATTCACCACAACCAAGTAATCTAAGCTATCTATGAAATTTCGGTTCATTACTGGGATTTTGTCTTGTAATACAAATCGTTACTGGTGTTACACTTGCTATGCATTATAACCCTAGCGTATCTGAAGCATTTAACTCAGTTGAACACATAATGAGAGATGTAAAC
modifications: complementary strand of dsRNA
For the molecule B1, the “ED50 SEPTTR-184 1DP” value is recorded as less than 3.125 ppm, the “ED80 SEPTTR-184 1DP” value was greater than 200 ppm, the “Disease Control All Rates Average SEPTTR-184 1DP” value worked out at 73% and the “Sum of Disease Control SEPTTR-184 1DP” value was 292%. The “ED50 SEPTTR-184 3DC” value was less than 3.125 ppm, the “ED80 SEPTTR-184 3DC” value is 44 ppm, the “Disease Control All Rates Average SEPTTR-184 3DC” value is on record as 79% and the “Sum of Disease Control SEPTTR-184 3DC” value is on record as 316%. In addition, under “3.125 ppm”, the “Average of 2 trials SEPTTR-184 1DP” value was 71 and the “Average of 2 trials SEPTTR-184 3DC” value turned out to be 76. Under “12.5 ppm”, the “Average of 2 trials SEPTTR-184 1DP” value is 74 and the “Average of 2 trials SEPTTR-184 3DC” value stood at 75. Besides, for the setting “50 ppm”, the “Average of 2 trials SEPTTR-184 1DP” value is reported as 73 and the “Average of 2 trials SEPTTR-184 3DC” value came to 81. For the same molecule, where the note is “200 ppm”, the “Average of 2 trials SEPTTR-184 1DP” value was found to be 74 and the “Average of 2 trials SEPTTR-184 3DC” value came to 83.

B2: MgCytB-T5: 172 bp dsRNA of Zymoseptoria CytB region T5, location 173-344 (SEQ ID NO:8) (nucleic acid, listed as Zymoseptoria tritici)
chain: TATCTGAAGCATTTAACTCAGTTGAACACATAATGAGAGATGTAAACAATGGATGACTTATACGTTATCTTCACTCTAATACTGCTTCAGCTTTCTTCTTTTTAGTTTACCTGCACGTGGGTAGAGGGTTATACTACGGGTCATACAAAGCCCCTAGAACATTAACATGAAC
modifications: complementary strand of dsRNA
B2: the “ED50 SEPTTR-184 1DP” value was less than 3.125 ppm, the “ED80 SEPTTR-184 1DP” value was greater than 200 ppm, the “Disease Control All Rates Average SEPTTR-184 1DP” value amounted to 71% and the “Sum of Disease Control SEPTTR-184 1DP” value is on record as 284%. Besides, the “ED50 SEPTTR-184 3DC” value worked out at 4.605 ppm, the “ED80 SEPTTR-184 3DC” value turned out to be 200 ppm, the “Disease Control All Rates Average SEPTTR-184 3DC” value came to 66% and the “Sum of Disease Control SEPTTR-184 3DC” value was 265%. Further, where the note is “3.125 ppm”, the “Average of 2 trials SEPTTR-184 1DP” value was determined as 68 and the “Average of 2 trials SEPTTR-184 3DC” value is 47. Under “12.5 ppm”, the “Average of 2 trials SEPTTR-184 1DP” value turned out to be 68 and the “Average of 2 trials SEPTTR-184 3DC” value came to 66. For the setting “50 ppm”, the “Average of 2 trials SEPTTR-184 1DP” value stood at 73 and the “Average of 2 trials SEPTTR-184 3DC” value is recorded as 72. Besides, for the setting “200 ppm”, the “Average of 2 trials SEPTTR-184 1DP” value was 76 and the “Average of 2 trials SEPTTR-184 3DC” value was 80.
